# Literature values in PMC12805357, “Cooperative ligand binding in a bacterial heme-based oxygen sensor” (The Journal of Biological Chemistry, 2025).
# Assays:
# [1] = set-up: method as in earlier work; settings: myoglobins; ref 7 of the supplement (Faulkner et al., 1995)
# [2] = HemAT-Bs
"n (Hill coefficient), O2 binding [2]","Kd ([2]; read-out: Kd, equilibrium oxygen affinity)",Molecule,Midpoint 1 (mV vs SHE) [1]
,,"hhMb: myoglobin comparison protein listed as hhMb in Table S2, literature values (protein, UniProt P68082 2-154, looked up) Myoglobin: GLSDGEWQQVLNVWGKVEADIAGHGQEVLIRLFTGHPETLEKFDKFKHLKTEAEMKASEDLKKHGTVVLTALGGILKKKGHHEAELKPLAQSHATKHKIPIKYLEFISDAIIHVLHSKHPGDFGADAQGAMTKALELFRNDIAAKYKELGFQG",37 mV vs SHE
0.45,10 µM,"HemAT-Bs: globin-coupled sensor from Bacillus subtilis, MCP output domain (protein, UniProt O07621 1-432, looked up) Heme-based aerotactic …: MLFKKDRKQETAYFSDSNGQQKNRIQLTNKHADVKKQLKMVRLGDAELYVLEQLQPLIQENIVNIVDAFYKNLDHESSLMDIINDHSSVDRLKQTLKRHIQEMFAGVIDDEFIEKRNRIASIHLRIGLLPKWYMGAFQELLLSMIDIYEASITNQQELLKAIKATTKILNLEQQLVLEAFQSEYNQTRDEQEEKKNLLHQKIQETSGSIANLFSETSRSVQELVDKSEGISQASKAGTVTSSTVEEKSIGGKKELEVQQKQMNKIDTSLVQIEKEMVKLDEIAQQIEKIFGIVTGIAEQTNLLSLNASIESARAGEHGKGFAVVANEVRKLSEDTKKTVSTVSELVNNTNTQINIVSKHIKDVNELVSESKEKMTQINRLFDEIVHSMKISKEQSGKIDVDLQAFLGGLQEVSRAVSHVAASVDSLVILTEE",
